Measurements: paper PMC9563779 (2022)

Target: extracellular domain of p95HER2 peptide with a poly-histidine-tag in the C-terminus (human)
Assay: SPR

koff: 0.00893 s⁻¹
B1: Oslo-2 mAb (antibody, V domains shown)
VH: EVQILETGGGLVKPGGSLRLSCATSGFNFNDYFMNWVRQAPGKGLEWIAQIRNKNYNYATYFAESLEGRFTISRDDSKSSVYLQVNSLRAEDTALYYCTELRYDYWGQGVMVTVSS
VL: DIVMTQSPFSLAVSEGEMVTINCKSSQSLLSSGNQKNNLAWYQQKPGQSPKLLIYYASTRQSGVPDRFIGSGSGTDFTLTISDVQAEDLADYYCLQHYSSPYTFGAGTKLELK
